# From IntAct's records for PubMed 19680263
# B1: Complement factor H (Homo sapiens), P08603 (parent)
# chain: MRLLAKIICLMLWAICVAEDCNELPPRRNTEILTGSWSDQTYPEGTQAIYKCRPGYRSLGNVIMVCRKGEWVALNPLRKCQKRPCGHPGDTPFGTFTLTGGNVFEYGVKAVYTCNEGYQLLGEINYRECDTDGWTNDIPICEVVKCLPVTAPENGKIVSSAMEPDREYHFGQAVRFVCNSGYKIEGDEEMHCSDDGFWSKEKPKCVEISCKSPDVINGSPISQKIIYKENERFQYKCNMGYEYSERGDAVCTESGWRPLPSCEEKSCDNPYIPNGDYSPLRIKHRTGDEITYQCRNGFYPATRGNTAKCTSTGWIPAPRCTLKPCDYPDIKHGGLYHENMRRPYFPVAVGKYYSYYCDEHFETPSGSYWDHIHCTQDGWSPAVPCLRKCYFPYLENGYNQNYGRKFVQGKSIDVACHPGYALPKAQTTVTCMENGWSPTPRCIRVKTCSKSSIDIENGFISESQYTYALKEKAKYQCKLGYVTADGETSGSITCGKDGWSAQPTCIKSCDIPVFMNARTKNDFTWFKLNDTLDYECHDGYESNTGSTTGSIVCGYNGWSDLPICYERECELPKIDVHLVPDRKKDQYKVGEVLKFSCKPGFTIVGPNSVQCYHFGLSPDLPICKEQVQSCGPPPELLNGNVKEKTKEEYGHSEVVEYYCNPRFLMKGPNKIQCVDGEWTTLPVCIVEESTCGDIPELEHGWAQLSSPPYYYGDSVEFNCSESFTMIGHRSITCIHGVWTQLPQCVAIDKLKKCKSSNLIILEEHLKNKKEFDHNSNIRYRCRGKEGWIHTVCINGRWDPEVNCSMAQIQLCPPPPQIPNSHNMTTTLNYRDGEKVSVLCQENYLIQEGEEITCKDGRWQSIPLCVEKIPCSQPPQIEHGTINSSRSSQESYAHGTKLSYTCEGGFRISEENETTCYMGKWSSPPQCEGLPCKSPPEISHGVVAHMSDSYQYGEEVTYKCFEGFGIDGPAIAKCLGEKWSHPPSCIKTDCLSLPSFENAIPMGEKKDVYKAGEQVTYTCATYYKMDGASNVTCINSRWTGRPTCRDTSCVNPPTVQNAYIVSRQMSKYPSGERVRYQCRSPYEMFGDEEVMCLNGNWTEPPQCKDSTGKCGPPPPIDNGDITSFPLSVYAPASSVEYQCQNLYQLEGNKRITCRNGQWSEPPKCLHPCVISREIMENYNIALRWTAKQKLYSRTGESVEFVCKRGYRLSSRSHTLRTTCWDGKLEYPTCAKR
# partner: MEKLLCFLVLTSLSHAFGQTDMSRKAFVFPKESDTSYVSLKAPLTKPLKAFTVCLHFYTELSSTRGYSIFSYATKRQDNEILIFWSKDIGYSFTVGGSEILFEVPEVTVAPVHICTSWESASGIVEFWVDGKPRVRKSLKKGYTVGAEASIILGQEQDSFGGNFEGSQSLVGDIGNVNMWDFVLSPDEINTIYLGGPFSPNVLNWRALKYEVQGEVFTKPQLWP
# Variants of: B1
# Conditions: with crp_human CRP
row,Variant,effect of a mutation on the interaction
1,R1215G,decreasing interaction strength
2,W1183L,decreasing interaction strength
3,V1197A,decreasing interaction strength
4,R1210C,decreasing interaction strength

# Variants of: B1
# Conditions: with crp_human CRP
# Remark: another data set of the same source
row,Variant,effect of a mutation on the interaction
1,R1203E;R1206E;R1210S;K1230S;R1231A,disrupting interaction strength

# Variants of: B1
# Conditions: with crp_human CRP
# Remark: another data set of the same source
row,Variant,effect of a mutation on the interaction
1,R1203E;R1206E;R1210S;K1230S;R1231A,disrupting interaction strength
